Measurements published in US6884616.

How the values were obtained:
[1] = target: Mononine (purified Factor IX) (UniProt P00740)
[2] = target: Recombinant human Factor IX immunoprecipitated from supernatants of GPIIb-FIX(WT.I1)-transfected HEL cells (UniProt P00740)

In the case of “Factor XIa (Enzyme Research Lab., Swansea, UK)”, the “FIX cleavage after incubation with FXIa (rate of activation and protein profile)” value [1] is reported as “The rate of activation and the protein profile from HEL supernatants was similar to the results obtained with Mononine” and the “FIX cleavage after incubation with FXIa (immunoblot of immunoprecipitated FIX, enzyme/substrate 1/40)” value [2] is reported as “activation of the immunoprecipitated FIX from HEL cells resulted in the appearance of two bands corresponding to the heavy chain (29 kDa) and the light chain (19 kDa)”.
